Data published in patent US20210054054A1 (ROCKEFELLER UNIVERSITY, published 2021).

Experiments:
human CD4 receptor [1] = target: T1, human CD4 receptor (human, UniProt P01730 26-396); assay: competition ELISA on CD4, competitor HRP-labeled wild type ibalizumab, pH 7.4
T1 construct: also called human CD4 protein

human CD4 receptor [2] = target: T1, human CD4 receptor; assay: competition ELISA on CD4, competitor HRP-labeled wild type ibalizumab; fold reduced binding vs wt at pH 5.0 over that at pH 7.4

Binder | pH 5.0/pH 7.4 differential (human CD4 receptor [2]) | fold reduced CD4 binding vs wt at pH 7.4 (human CD4 receptor [1]) | other results
ibalizumab LC S56H variant (antibody, human IgG1, kappa, V domains shown) VH: QVQLQQSGPEVVKPGASVKMSCKASGYTFTSYVIHWVRQKPGQGLDWIGYINPYNDGTDYDEKFKGKATLTSDTSTSTAYMELSSLRSEDTAVYYCAREKDNYATGAWFAYWGQGTLVTVSS VL: DIVMTQSPDSLAVSLGERVTMNCKSSQSLLYSTNQKNYLAWYQQKPGQSPKLLIYWASTREHGVPDRFSGSGSGTDFTLTISSVQAEDVAVYYCQQYYSYRTFGGGTKLEIKR | 0.8 | – | fold vs wt affinity at pH 7.4 (human CD4 receptor [1]): 1.3 fold
ibalizumab light chain S93/Y94 double histidine mutant (antibody, human IgG1, kappa, V domains shown, also called combination of S93 and Y94; S93/Y94 double mutant) VH: QVQLQQSGPEVVKPGASVKMSCKASGYTFTSYVIHWVRQKPGQGLDWIGYINPYNDGTDYDEKFKGKATLTSDTSTSTAYMELSSLRSEDTAVYYCAREKDNYATGAWFAYWGQGTLVTVSS VL: DIVMTQSPDSLAVSLGERVTMNCKSSQSLLYSTNQKNYLAWYQQKPGQSPKLLIYWASTRESGVPDRFSGSGSGTDFTLTISSVQAEDVAVYYCQQYYHHRTFGGGTKLEIKR | 3 | – | –
ibalizumab variant with a histidine mutation at residue S93 in the light chain (antibody, human IgG1, kappa, V domains shown, also called S93H) VH: QVQLQQSGPEVVKPGASVKMSCKASGYTFTSYVIHWVRQKPGQGLDWIGYINPYNDGTDYDEKFKGKATLTSDTSTSTAYMELSSLRSEDTAVYYCAREKDNYATGAWFAYWGQGTLVTVSS VL: DIVMTQSPDSLAVSLGERVTMNCKSSQSLLYSTNQKNYLAWYQQKPGQSPKLLIYWASTRESGVPDRFSGSGSGTDFTLTISSVQAEDVAVYYCQQYYHYRTFGGGTKLEIKR | – | < 3 fold | –
ibalizumab light chain triple Y92H/S93H/Y94H variant (antibody, human IgG1, kappa, V domains shown) VH: QVQLQQSGPEVVKPGASVKMSCKASGYTFTSYVIHWVRQKPGQGLDWIGYINPYNDGTDYDEKFKGKATLTSDTSTSTAYMELSSLRSEDTAVYYCAREKDNYATGAWFAYWGQGTLVTVSS VL: DIVMTQSPDSLAVSLGERVTMNCKSSQSLLYSTNQKNYLAWYQQKPGQSPKLLIYWASTRESGVPDRFSGSGSGTDFTLTISSVQAEDVAVYYCQQYHHHRTFGGGTKLEIKR | 3.4 | – | –
ibalizumab variant with a histidine mutation at residue Y94 in the light chain (antibody, human IgG1, kappa, V domains shown, also called Y94H; LC Y94) VH: QVQLQQSGPEVVKPGASVKMSCKASGYTFTSYVIHWVRQKPGQGLDWIGYINPYNDGTDYDEKFKGKATLTSDTSTSTAYMELSSLRSEDTAVYYCAREKDNYATGAWFAYWGQGTLVTVSS VL: DIVMTQSPDSLAVSLGERVTMNCKSSQSLLYSTNQKNYLAWYQQKPGQSPKLLIYWASTRESGVPDRFSGSGSGTDFTLTISSVQAEDVAVYYCQQYYSHRTFGGGTKLEIKR | – | < 3 fold | –
ibalizumab variant with a histidine mutation at residue Y92 in the light chain (antibody, human IgG1, kappa, V domains shown, also called Y92H) VH: QVQLQQSGPEVVKPGASVKMSCKASGYTFTSYVIHWVRQKPGQGLDWIGYINPYNDGTDYDEKFKGKATLTSDTSTSTAYMELSSLRSEDTAVYYCAREKDNYATGAWFAYWGQGTLVTVSS VL: DIVMTQSPDSLAVSLGERVTMNCKSSQSLLYSTNQKNYLAWYQQKPGQSPKLLIYWASTRESGVPDRFSGSGSGTDFTLTISSVQAEDVAVYYCQQYHSYRTFGGGTKLEIKR | – | < 3 fold | fold loss of affinity vs wt at pH 7.4 (human CD4 receptor [1]): > 2.6 fold
